The values that follow come from patent US20240100133.

The series relates to Granzyme A wild type, recombinant human, His-tagged (GzmA-WT).
Granzyme A wild type, recombinant human, His-tagged (GzmA-WT), sequence (chain, as listed by the source): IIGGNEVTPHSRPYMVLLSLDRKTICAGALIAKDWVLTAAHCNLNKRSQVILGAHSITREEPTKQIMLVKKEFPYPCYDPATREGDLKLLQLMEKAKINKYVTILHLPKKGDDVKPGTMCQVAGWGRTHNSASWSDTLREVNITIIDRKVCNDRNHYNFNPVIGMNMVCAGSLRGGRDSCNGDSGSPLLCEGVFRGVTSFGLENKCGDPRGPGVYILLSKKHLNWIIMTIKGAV

human recombinant PDIA1 (Protein Disulfide Isomerase A1, residues 18-479, N-terminal His-tag), sequence (chain, as listed by the source): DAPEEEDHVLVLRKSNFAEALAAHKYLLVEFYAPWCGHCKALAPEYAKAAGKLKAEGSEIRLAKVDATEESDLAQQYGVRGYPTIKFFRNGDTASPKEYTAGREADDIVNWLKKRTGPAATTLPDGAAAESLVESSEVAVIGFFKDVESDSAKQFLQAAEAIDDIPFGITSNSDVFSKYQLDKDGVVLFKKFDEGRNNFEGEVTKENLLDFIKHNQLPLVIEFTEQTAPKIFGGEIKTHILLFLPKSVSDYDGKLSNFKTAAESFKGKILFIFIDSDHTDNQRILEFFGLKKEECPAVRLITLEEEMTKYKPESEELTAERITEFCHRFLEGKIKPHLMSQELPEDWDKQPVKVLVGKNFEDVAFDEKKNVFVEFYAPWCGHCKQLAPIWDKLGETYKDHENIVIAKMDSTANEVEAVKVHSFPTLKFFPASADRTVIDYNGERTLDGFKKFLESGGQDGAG

As to “human recombinant PDIA1 (Protein Disulfide Isomerase A1, residues 18-479, N-terminal His-tag)”, the “conversion of GzmA homodimer into the 27 kDa monomer (silver stain and anti-GzmA western blot)” value was “they incubated GzmA-WT with PDIA1 and observed the monomeric band at 27 KDa, which was not present when heat-inactivated PDIA1 was used”.
